Source: patent US20260069656A1, “Nutritive Polypeptides and Formulations Thereof, and Methods of Production and Use Thereof” (Axcella Health Inc., priority 2013, published 2026)
Read-outs that look alike come from different tables or passages of the source.

Legend:
[1] = Oral pharmacokinetics in humans, plasma amino acid concentrations; parameters: species or system human; conditions: in vivo
Procedure: The anabolic response to protein ingestion is predicated on the delivery of essential amino acids. The purpose of this study was to examine the changes in plasma amino acid concentrations in response to various proteins over a period of 240 minutes. […] Subjects were fasted overnight (>8 hrs) before oral pharmacokinetic study. […] Plasma amino acid concentrations were quantified by Quest Diagnostics or Laboratory Corporation of America. […] FIGS. 64-67 show the plasma time course of each measured amino acid and the aggregate groups, essential amino acids (EAA), branched chain amino acids (BCAA), and total amino acids (TAA), for WPI and SEQID-105. […] Subjects were fasted overnight (>8 hrs) before oral pharmacokinetic study. […] Plasma amino acid concentrations were quantified by Quest Diagnostics or Laboratory Corporation of America. The purpose of this study was to examine the changes in plasma amino acid concentrations in response to a methionine deficient nutritive protein over a period of 240 minutes. […] Plasma amino acid concentrations were quantified by Quest Diagnostics or Laboratory Corporation of America.

[2] = rat, in vivo, po
Procedure: (§1) Rat pharmacokinetic studies. Male Sprague Dawley rats with indwelling jugular vein cannula (JVC) were purchased from Harlan Laboratories and acclimated to the Test Facility (Agilux Laboratories) for at least two days prior to study initiation. Prior to dose administration animals were fasted overnight (11-13 h) and remained fasted until completion of the study. Test articles were orally administered via a bulb-tipped 18 gauge stainless steel gavage needle attached to a syringe. The weight of all dose syringes were recorded prior to and following dosing to more accurately determine the amount of solution dosed. Serial blood samples (˜300 μL) were collected from the JVC at time 0 (pre-dose) and 0.25, 0.5, 1, 2, and 4 h post-dose. Blood samples were collected into tubes containing the anti-coagulant K2EDTA, a general protease inhibitor cocktail (Sigma P8340, diluted 1:100 in whole blood), and a DPP IV inhibitor (Millipore DPP4, diluted 1:100 in whole blood). Immediately following blood collection tubes were vortexed and stored on wet ice until processing to plasma by centrifugation (3,500 rpm at 5° C.) within 1 h of collection. Plasma samples were then transferred into new tubes and stored at −80° C.
(§2) The concentration of Glu, Ser, His, Gly, Thr, Arg, Ala, Tyr, Val, Met, Phe, Ile, Leu, and Lys in the plasma samples was determined by HPLC amino acid analysis, as described herein. Prior to HPLC amino acid analysis, insoluble particles were removed from plasma samples by centrifugation (1100×g at 4° C.) for 10 min. A 25 μL sample of the soluble fraction was then transferred to a 96-well plate, for some samples an internal standard (Norvaline, Agilent) was added to each plasma sample at final concentration of 0.5 mM.

[3] = simulated gi fluid
[4] = rat, in vivo
Procedure: A rat pharmacokinetic study with oral administration of native and modified forms of SEQID-00363 was performed as described herein. The indigestible marker Cobalt-EDTA was formulated at 50 mg/L in the dosed protein solutions to monitor differences in intestinal transit rate between treatment groups and individual rats. Following the final blood collection (at t=4 h) rats were euthanized and the terminal ileum (20 cm of small intestine prior to the cecum) and its contents (the digesta) were collected into a pre-weighed tube. The ileum was flushed with saline and pooled with the digesta. The pH of the digesta was adjusted to ˜3.0 with HCl in order to inactivate all enzymes. The ileum samples were placed into separate pre-weighed 15 mL conical tubes. All samples were flash frozen in liquid nitrogen, and stored at −80° C. until further analysis. Individual ileum and ileum content weights were calculated and recorded for each sample.
A sample of the digesta, which exists as a heterogenous solution containing insoluble particles, was used in the Coomassie Plus Protein Assay, as described herein, to determine protein concentration.

[5] = Intact half-life during simulated gastric fluid (SGF) digestion; conditions: SGF pH 1.5, pepsin:polypeptide 1:20 w/w, 37° C.; produced in E. coli unless otherwise noted
[6] = Pancreatin-based in vitro digestion, free amino acids by RP-HPLC; conditions: after 120 min SGF, Pancreatin SIF pH 6.5
Procedure: In this method, pancreatin, a mixture of enzymes, is used to simulate intestinal proteases. Specifically, the digestion of polypeptides into amino acids was analyzed by an in vitro Pancreatin-based digestion assay followed by free amino acid analysis using reversed phase HPLC (RP-HPLC). The nutritive polypeptide was added to SGF (0.92 g/L Pepsin (Sigma), 0.03 M NaCl titrated with HCl to pH 1.5) at a final concentration of 4 g/L and incubated at 37° C. for 120 min. After 120 min, Na2CO3 was added to a final concentration of 16 mM to quench the pepsin reaction. […] Time points were sampled from the reaction and quenched by heating to 95° C. for 5 min. Control samples were protease-free.
Analyses were performed using an Agilent 1100 series system. Primary amino acids were derivitized pre-column at room temperature, online, using o-phthalaldehyde (OPA). The OPA-derivatives were separated using the Zorbax Eclipse-AAA 4.6×150 mm, 3.5 μm column at 40° C. The separation gradient transitioned from 100% 40 mM Na2HPO4 pH 7.8 to 65% acetonitrile/methanol/water mixture (45/45/10) over 23 minutes. Analytes were detected by fluorescence at 340 nm Ex/450 nm Em.

[7] = Rat pharmacokinetic studies, plasma amino acids by HPLC; conditions: oral administration to rats, doses of Table E33A
Procedure: as §1, §2

[8] = Solubility of proteins (lyophilized/reconstituted or ultrafiltered); conditions: produced in E. coli unless otherwise noted
Procedure: Solubility. […] Protein samples were dried by lyophilization on a FreeZone Freeze Dry System (Labconco) using the manufacturer's standard protocol and then resuspended in buffer to the desired concentration. Centrifugal and tangential ultrafiltration were used to selectively remove buffer from the protein sample until the desired concentration was reached. Centrifugal ultrafiltration of protein solutions was performed by centrifugation (10,000×g) of 10 mg of protein in an Amicon centrifugal filter (Millipore) with a molecular weight cutoff of 3 kDa, 10 kDa, or 30 kDa, depending on the protein size, until the desired contrentration was reached. Ultrafiltration of protein solutions was performed on Hydrosart ultrafiltration cassettes (Sartorius Stedim, Bohemia, NY) with a molecular weight cutoff of 3 kDa, 10 kDa, or 30 kDa, depending on the protein size, at a cross flow rate of 12 L/m2/min. For most processes, transmembrane pressure was maintained at 20 psi and performed until the desired contrentration was reached.
The protein concentration of the above samples was measured by one or a combination of the following methods: Coomassie Plus Protein Assay, absorbance at 280 nm (A280), and total amino acid analysis. Coomassie Plus Protein Assays (Pierce) were performed according to the manufacturer's protocol. Absorbance at 280 nm was measured on a Nanodrop 2000 UV-Vis spectrophotometer. Protein concentration was determined using the A280 value and molar extinction coefficient, which was calculated by primary amino acid sequence using ProtParam (Gasteiger, Elisabeth, et al. The proteomics protocols handbook. Humana Press, 2005. 571-607.). Total amino acids were analyzed by HPLC after acid hydrolysis as described in Henderson, J. W., et al. Agilent Technologies (2010).

B1: SEQID-00426: methionine deficient nutritive protein (protein, listed as Thermomyces lanuginosus)
chain: EVSQDLFNQFNLFAQYSAAAYCGKNNDAPAGTNITCTGNACPEVEKADATFLYSFEDSGVGDVTGFLALDNTNKLIVLSFRGSRSIENWIGNLNFDLKEINDICSGCRGHDGFTSSWRSVADTLRQKVEDAVREHPDYRVVFTGHSLGGALATVAGADLRGNGYDIDVFSYGAPRVGNRAFAEFLTVQTGGTLYRITHTNDIVPRLPPREFGYSHSSPEYWIKSGTLVPVTRNDIVKIEGIDATGGNNQPNIPDIPAHLWYFGLIGTCL
For B1, the “plasma EAA time course vs basal, Dunnett multiple comparison test” value [1] was “plasma EAA levels at the 30 and 60 min. time points are significantly different from the basal levels at time 0 min”, the “plasma Methionine over time” value [1] was “Methionine shows no significant change over time” and the “plasma amino acid levels across time, 1-way ANOVA” value [1] was “significant differences across time for Glu and EAA”. For the same molecule, the “change in AUC0-4 h for plasma Lys” value [2] was “did not alter the change in AUC0-4 h for plasma Lys” and the “SGF Half-life (t½)” value ([3]; pH 1.5) was 18 s.

B2: Deglycosylated SEQID-00363: SEQID-00363 with mannose glycans enzymatically reduced (protein)
chain: ATLDSWLSNEATVARTAILNNIGADGAWVSGADSGIVVASPSTDNPDYFYTWTRDSGLVLKTLVDLFRNGDTSLLSTIENYISAQAIVQGISNPSGDLSSGAGLGEPKFNVDETAYTGSWGRPQRDGPALRATAMIGFGQWLLDNGYTSTATDIVWPLVRNDLSYVAQYWNQTGYDLWEEVNGSSFFTIAVQHRALVEGSAFATAVGSSCSWCDSQAPEILCYLQSFWTGSFILANFDSSRSGKDANTLLGSIHTFDPEAACDDSTFQPCSPRALANHKEVVDSFRSIYTLNDGLSDSEAVAVGRYPEDTYYNGNPWFLCTLAAAEQLYDALYQWDKQGSLEVTDVSLDFFKALYSDAATGTYSSSSSTYSSIVDAVKTFADGFVSIVETHAASNGSMSEQYDKSDGEQLSARDLTWSYAALLTANNRRNSVVPASWGETSASSVPGTCAATSAIGTYSSVTVTSWPSIVATGGTTTTATPTGSGSVTSTSKTTATASKTSTSTSSTSCTTPTAVAVTFDLTATTTYGENIYLVGSISQLGDWETSDGIALSADKYTSSDPLWYVTVTLPAGESFEYKFIRIESDDSVEWESDPNREYTVPQACGTSTATVTDTWR
modifications: deglycosylated; Aspergillus niger
With B2 the “bioavailability of amino acids (plasma free amino acids over 4 h)” value [2] was “did not increase the bioavailability of Leucine or EAAs, it did increase the bioavailability of Serine and Threonine”, the “total protein mass in digesta samples” value [4] was 7.7 mg and the “SGF Half-life (t½)” value [3] was 258 s.

B3: SEQID-00352: nutritive polypeptide naturally produced in Corn, recombinantly expressed in E. coli (protein)
chain: MATKRSVGTLGEADLKGKKVFVRADLNVPLDDAQKITDDTRIRASVPTIKFLLEKGAKVILASHLGRPKGVTPKYSLKPLVPRLSELLGVEVVMANDCIGEEVEKLAAALPEGGVLLLENVRFYKEEEKNEPEFAKKLASVADLYVNDAFGTAHRAHASTEGVTKYLKPAVAGFLMQKELDYLVGAVANPKKPFAAIVGGSKVSTKIGVIESLLAKVDILILGGGMIYTFYKAQGYSVGKSLVEEDKLELATSLIEKAKAKGVSLLLPTDIVVADKFAADAESKIVPATAIPDDWMGLDVGPDATKTFDEALDTTKTVIWNGPMGVFEFQKFAAGTEAIAKKLAELTTTKGVTTIIGGGDSVAAVEKAGLADKMSHISTGGGASLELLEGKTLPGVLALDDA
modifications: Zea mays
With B3 the “SGF Half-life (t½)” value [5] was 12 s, the “Free Leu (μM) at 120 min time point of Pancreatin digest” value [6] was 906.1 µM and the “change in AUC0-4 h for plasma Lys” value [7] was “increased the change in AUC0-4 h for plasma Lys”. For the same molecule, the “Solubility” value [8] was 223 mg/mL.
